Patent US20180155451A1 (published 2018)

B1: GpH7-A5/GpH7-B3 variant S239_05P/GpL16-k0 (antibody, human IgG1, kappa)
heavy 1: not shown
heavy 2: not shown
light: DIVMTQSPLSLPVTPGEPASISCQASESLVHSNRNTYLHWYLQKPGQSPQLLIYKVSNRFSGVPDRFSGSGSGTDFTLKISRVEAEDVGVYYCSQNTHVPPTFGQGTKVEIERTVAAPSVFIFPPSDEQLKSGTASVVCLLNNFYPREAKVQWKVDNALQSGNSQESVTEQDSKDSTYSLSSTLTLSKADYEKHKVYACEVTHQGLSSPVTKSFNRGEC
notes: Heterodimerized IgG1 (He Ab); mutation only in the GpH7-B3 chain; also called He Ab S239P
B2: GpH7-A5/GpH7-B3 variant V266_10E/GpL16-k0 (antibody, human IgG1, kappa)
heavy 1: not shown
heavy 2: not shown
light: B1 light
notes: Heterodimerized IgG1 (He Ab); mutation only in the GpH7-B3 chain; also called He Ab V266E
B3: GpH7-A5/GpH7-B3 variant V266_12R/GpL16-k0 (antibody, human IgG1, kappa)
heavy 1: not shown
heavy 2: not shown
light: B1 light
notes: Heterodimerized IgG1 (He Ab); mutation only in the GpH7-B3 chain; also called He Ab V266R
B4: GpH7-A5/GpH7-B3 variant P238_18N/GpL16-k0 (antibody, human IgG1, kappa)
heavy 1: not shown
heavy 2: not shown
light: B1 light
notes: Heterodimerized anti-glypican-3 IgG1; the substitution stands in the GpH7-B3 chain only; also called He Ab
B5: GpH7-A5/GpH7-B3 variant S239_03V/GpL16-k0 (antibody, human IgG1, kappa)
heavy 1: not shown
heavy 2: not shown
light: B1 light
notes: as for B4
B6: GpH7-A5/GpH7-B3 variant Q295_09D/GpL16-k0 (antibody, human IgG1, kappa)
heavy 1: not shown
heavy 2: not shown
light: B1 light
notes: He Ab: the mutation stands only in the GpH7-B3-derived H chain; also called He Ab Q295D
B7: GpH7-A5/GpH7-B3 variant S239_20W/GpL16-k0 (antibody, human IgG1, kappa)
heavy 1: not shown
heavy 2: not shown
light: B1 light
notes: Heterodimerized IgG1 (He Ab); mutation only in the GpH7-B3 chain; also called He Ab S239W
B8: GpH7-A5/GpH7-B3 variant V266_14T/GpL16-k0 (antibody, human IgG1, kappa)
heavy 1: not shown
heavy 2: not shown
light: B1 light
notes: Heterodimerized IgG1 (He Ab); mutation only in the GpH7-B3 chain; also called He Ab V266T
B9: GpH7-A5/GpH7-B3 variant V266_06M/GpL16-k0 (antibody, human IgG1, kappa)
heavy 1: not shown
heavy 2: not shown
light: B1 light
notes: Heterodimerized IgG1 (He Ab); mutation only in the GpH7-B3 chain; also called He Ab V266M
B10: GpH7-A5/GpH7-B3 variant P238_20W/GpL16-k0 (antibody, human IgG1, kappa)
heavy 1: not shown
heavy 2: not shown
light: B1 light
notes: as for B4
B11: GpH7-A5/GpH7-B3 variant S239_10E/GpL16-k0 (antibody, human IgG1, kappa)
heavy 1: not shown
heavy 2: not shown
light: B1 light
notes: Heterodimerized IgG1 (He Ab); mutation only in the GpH7-B3 chain; also called He Ab S239E
B12: GpH7-A5/GpH7-B3 variant V266_09D/GpL16-k0 (antibody, human IgG1, kappa)
heavy 1: not shown
heavy 2: not shown
light: B1 light
notes: Heterodimerized IgG1 (He Ab); mutation only in the GpH7-B3 chain; also called He Ab V266D
B13: GpH7-A5/GpH7-B3 variant V266_15Y/GpL16-k0 (antibody, human IgG1, kappa)
heavy 1: not shown
heavy 2: not shown
light: B1 light
notes: Heterodimerized IgG1 (He Ab); mutation only in the GpH7-B3 chain; also called He Ab V266Y
B14: GpH7-A5/GpH7-B3 variant S239_09D/GpL16-k0 (antibody, human IgG1, kappa)
heavy 1: not shown
heavy 2: not shown
light: B1 light
notes: Heterodimerized IgG1 (He Ab); mutation only in the GpH7-B3 chain; also called He Ab S239D

Key:
[1] = biological target: T1, FcγRIIa H (FcγRIIa type H, His at position 131), extracellular domain with C-terminal His tag (human, UniProt P12318 34-217); experiment: ratio of He/Con_2aH (FcγRIIa H) to He/Con_2b (FcγRIIb), SPR relative binding
T1 construct: extracellular domain; also called 2aH; FcgRIIa H; not shown: His tag at the C terminus
T1 sequence (looked up): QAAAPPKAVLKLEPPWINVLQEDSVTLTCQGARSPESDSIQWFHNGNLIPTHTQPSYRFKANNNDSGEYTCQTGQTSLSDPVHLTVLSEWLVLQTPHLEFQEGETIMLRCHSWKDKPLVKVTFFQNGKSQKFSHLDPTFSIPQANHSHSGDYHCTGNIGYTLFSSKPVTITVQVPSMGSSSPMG
Protocol: (§1) The heterodimerized antibodies He Abs in which one of the H chains was introduced with an alteration were assayed for their binding activities to each activating FcγR and inhibitory FcγR according to the method described in Example 4. […] The activating FcγRs in FIGS. 26, 27, 28, and 29 are FcγRIa, FcγRIIa (R), FcγRIIa (H), and FcγRIIIa, respectively.
(§2) Analysis of interaction between objective antibody and the FcγR was carried out using Biacore T100 (GE Healthcare). HBS-EP+ (GE Healthcare) was used as the running buffer, and the measurement temperature was set to 25° C. Chips produced by immobilizing the antigen peptide by the amine coupling method to a Series S Sencor Chip CM5 (GE Healthcare), or alternatively, chips produced by allowing preliminarily biotinylated antigen peptides to interact with and immobilize onto a Series S Sensor Chip SA (certified) (GE Healthcare) were used. Antibodies of interest were captured onto an antigen peptide-immobilized chip, and allowed to interact to each FcγR diluted with running buffer. To regenerate and repeatedly use the chip, the antibodies captured on the chip were washed off by reacting 10 mM glycine-HCl, pH 1.5.

[2] = biological target: T1, FcγRIIa H (FcγRIIa type H, His at …); experiment: SPR (Biacore), antibody captured on antigen-peptide chip, FcγR as analyte; GpH7-A5/GpH7-B3/GpL16-k0 = 100
Protocol: as §1, §2

[3] = biological target: T2, FcγRIIb, extracellular domain with C-terminal His tag (human, UniProt P31994 43-217); experiment: as above
T2 construct: extracellular domain; also called 2b; FcgRIIb; not shown: His tag at the C terminus
T2 sequence (looked up): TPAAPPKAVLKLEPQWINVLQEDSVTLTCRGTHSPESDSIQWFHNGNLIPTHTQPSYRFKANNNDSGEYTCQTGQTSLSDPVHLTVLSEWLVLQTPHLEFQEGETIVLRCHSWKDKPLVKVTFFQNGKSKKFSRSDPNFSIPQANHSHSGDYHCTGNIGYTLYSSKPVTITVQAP
Protocol: as §1, §2

[4] = biological target: T3, FcγRIIIa extracellular domain with C-terminal His tag (human, UniProt P08637 17-208); experiment: SPR; He/Con_3a divided by He/Con_2b (binding to FcγRIIb is the reference)
T3 construct: extracellular domain; also called FcgRIIIa; 3a; not shown: His tag at the C terminus
Protocol: as §2
(§3) The FcγR-binding activity of each antibody was assessed primarily using as an indicator the FcγR-binding activity and dissociation constant for FcγR.

[5] = biological target: T3, FcγRIIIa extracellular domain with …; experiment: SPR (Biacore), antibody captured on antigen peptide chip, FcγR as analyte; relative binding amount
Protocol: as §2, §3

[6] = biological target: T4, FcγRIIb extracellular domain with C-terminal His tag (human, UniProt P31994 43-217); experiment: as above
T4 construct: extracellular domain; also called FcgRIIb; 2b; not shown: His tag at the C terminus
T4 sequence (looked up): T2 sequence (looked up)
Protocol: as §2, §3

[7] = biological target: T5, FcγRIIIa extracellular domain with C-terminal His tag (human, UniProt P08637 17-208); experiment: ratio of He/Con_3a to He/Con_2b (FcγRIIIa over FcγRIIb), SPR relative binding
T5 construct: extracellular domain; also called FcgRIIIa; 3a; not shown: His tag at the C terminus
Protocol: as §1, §2

[8] = biological target: T6, FcγRIIb extracellular domain with C-terminal His tag (human, UniProt P31994 43-217); experiment: SPR (Biacore), antibody captured via antigen peptide, FcγR as analyte; binding relative to GpH7-A5/GpH7-B3/GpL16-k0 = 100
T6 construct: extracellular domain; also called FcgRIIb; 2b; not shown: His tag at the C terminus
T6 sequence (looked up): T2 sequence (looked up)

[9] = biological target: T5, FcγRIIIa extracellular domain with …; experiment: as above

Binder | He_2aH/2b (IIaH/IIb ratio) [1] | He/Con_2aH (relative binding activity) [2] | He/Con_2b (relative binding activity) [3] | also measured
B1 | 0.33 | 33.3 % of control | 102 % of control | –
B2 | 0.66 | 10.1 % of control | 15.2 % of control | –
B3 | -1.05 | 1.1 % of control | -1.1 % of control | –
B4 | – | – | – | He_3a/2b (IIIa/IIb) [4]: 0.55 ratio; He/Con_3a [5]: 40.4 % of GpH7-A5/GpH7-B3/GpL16-k0 (=100); He/Con_2b [6]: 73.2 % of GpH7-A5/GpH7-B3/GpL16-k0 (=100)
B5 | – | – | – | He_3a/2b (IIIa/IIb) [4]: 0.71 ratio; He/Con_3a [5]: 76.6 % of GpH7-A5/GpH7-B3/GpL16-k0 (=100); He/Con_2b [6]: 108 % of GpH7-A5/GpH7-B3/GpL16-k0 (=100)
B6 | – | – | – | IIIa/IIb (He_3a/2b) [7]: 1.34; He/Con_2b [8]: 60.8 relative (control = 100); He/Con_3a [9]: 81.5 relative (control = 100)
B7 | 0.78 | 35.2 % of control | 45.1 % of control | –
B8 | 0.53 | 43.3 % of control | 82.3 % of control | –
B9 | 0.33 | 83.9 % of control | 251 % of control | –
B10 | – | – | – | He_3a/2b (IIIa/IIb) [4]: 0.4 ratio; He/Con_3a [5]: 49.7 % of GpH7-A5/GpH7-B3/GpL16-k0 (=100); He/Con_2b [6]: 123 % of GpH7-A5/GpH7-B3/GpL16-k0 (=100)
B11 | 0.62 | 112 % of control | 181 % of control | –
B12 | 0.63 | 6.4 % of control | 10.1 % of control | –
B13 | 0.37 | 18.1 % of control | 49.4 % of control | –
B14 | 0.56 | 114 % of control | 206 % of control | –
